Laboratory results from patent publication US20240132624A1 (Ablynx, published 2024).
Changes are numbered by the printed parent chain. In names and notes the source's numbering stands.

B1: T026301057 (VHH, name in Kabat numbering)
VHH: EVQLVESGGGVVQPGGSLRLSCAASGFTFSEYAMYWVRQAPGKGLEWVSAISQGGGSTDYADSVKGRFTISRDNSKNTLYLQMNSLRPEDTALYYCAADTLYTSLTSYSYWGQGTLVTVSS
notes: tagless
B2: T026301076 (VHH, name in Kabat numbering)
VHH: B1 VHH with E31S, A33D, S107K
notes: tagless
B3: T026301070 (VHH, name in Kabat numbering)
VHH: B1 VHH with A33D
notes: tagless
B4: T026301117 (VHH, name in Kabat numbering)
VHH: B1 VHH with Q53S
notes: tagless
B5: T026301080 (VHH, name in Kabat numbering)
VHH: B1 VHH with E31S, A33D, Q53S
notes: tagless
B6: T026301091 (VHH, name in Kabat numbering)
VHH: B1 VHH with A33D, Q53S
notes: tagless
B7: T026301087 (VHH, name in Kabat numbering)
VHH: B1 VHH with A33D, S107W
notes: tagless
B8: T026301100 (VHH, name in Kabat numbering)
VHH: B1 VHH with E31S, A33D, S104D, S107W
notes: tagless
B9: T026301063 (VHH, name in Kabat numbering)
VHH: B1 VHH with G26T, E31S, S107W
notes: tagless
B10: T026301098 (VHH, name in Kabat numbering)
VHH: B1 VHH with E31D, Q53S, S107W
notes: tagless; also called T0263018B11 S31D
B11: T026301099 (VHH, name in Kabat numbering)
VHH: B1 VHH with A33D, Q53S, S107W
notes: tagless
B12: T026301075 (VHH, name in Kabat numbering)
VHH: B1 VHH with G26T, Q53S, S107W
notes: tagless
B13: T026301069 (VHH, name in Kabat numbering)
VHH: B1 VHH with E31S, A33D
notes: tagless
B14: T026301230 (other, name in Kabat numbering, not shown: small tags and cut ends)
chain: B1 VHH with E1D, E31S, Q53S
notes: pentavalent ISVD construct
B15: T026301234 (other, not shown: small tags and cut ends)
chain: B1 VHH with E1D, E31S, Q53S, S107W
notes: pentavalent ISVD construct
B16: T026301233 (other, name in Kabat numbering, not shown: small tags and cut ends)
chain: B1 VHH with E1D, G26T, E31S
notes: pentavalent ISVD construct
B17: T026301170 (bispecific antibody)
chain: DVQLVESGGGVVQPGGSLRLSCAASGFTFSSYAMYWVRQAPGKGLEWVSAISSGGGSTDYADSVKGRFTISRDNSKNTLYLQMNSLRPEDTALYYCAADTLYTSLTWYSYWGQGTLVTVSSGGGGSGGGGSGGGGSGGGGSGGGGSGGGGSGGGGSEVQLVESGGGVVQPGGSLRLSCAASGFTFRSFGMSWVRQAPGKGPEWVSSISGSGSDTLYADSVKGRFTISRDNSKNTLYLQMNSLRPEDTALYYCTIGGSLSRSSQGTLVTVSSA
notes: bispecific ISVD construct; also called T0263018B11(E1D)-35GS-ALB23002-A
B18: T026301196 (bispecific antibody, name in Kabat numbering)
chain: B17 chain with G26T, S53Q, W107S
notes: bispecific ISVD construct; also called T0263018B11(E1D, G26T, S52aQ, W100cS)-35GS-ALB23002-A
B19: T026301197 (bispecific antibody, name in Kabat numbering)
chain: B17 chain with S53Q
notes: bispecific ISVD construct; also called T0263018B11(E1D, S52aQ)-35GS-ALB23002-A
B20: T026301192 (bispecific antibody, name in Kabat numbering)
chain: B17 chain with S104E
notes: bispecific ISVD construct; also called T0263018B11(E1D, S100E)-35GS-ALB23002-A
B21: T026301198 (bispecific antibody, name in Kabat numbering)
chain: B17 chain with W107S
notes: bispecific ISVD construct; also called T0263018B11(E1D, W100cS)-35GS-ALB23002-A
B22: T026301259 (bispecific antibody, not shown: small tags and cut ends)
chain: EVQLVESGGGVVQPGGSLRLSCAASGFTFSSYAMYWVRQAPGKGLEWVSAISSGGGSTDYADSVKGRFTISRDNSKNTLYLQMNSLRPEDTALYYCAADTLYTSLTWYSYWGQGTLVTVSSGGGGSGGGSEVQLVESGGGVVQPGGSLRLSCAASGFTFRSFGMSWVRQAPGKGPEWVSSISGSGSDTLYADSVKGRFTISRDNSKNTLYLQMNSLRPEDTALYYCTIGGSLSRSSQGTLVTVSSA
notes: tetravalent ISVD construct; also called X-Y-FcRn-ALB23002
B23: T026301257 (bispecific antibody, not shown: small tags and cut ends)
chain: B17 chain with D1E
notes: tetravalent ISVD construct; also called X-Y-FcRn-35GS-ALB23002
B24: T026301366 (bispecific antibody, not shown: small tags and cut ends)
chain: B17 chain with D1E, W107S
notes: tetravalent ISVD construct; also called X-Y-FcRn(W100cS)-35GS-ALB23002

molecular target: T1, human FcRn/b2M (human, UniProt P61769 21-119, biotinylated); assay: SPR pH 6.0
T1 construct: bought recombinant biotinylated protein (ACRO FCM-H82W4 or Immunitrack ITF01); also called hFcRn; hFcRn/hb2M

koff [s⁻¹] | Binder
0.016 | B1
0.003 | B2
0.0046 | B3
0.0067 | B4
0.0051 | B5
0.0062 | B6
0.0011 | B7
0.0039 | B8
0.005 | B9
0.013 | B10

molecular target: T1, human FcRn/b2M; assay: SPR pH 6.0; remark: another data set of the same source

Kd [nM] | Binder
390 | B1
120 | B2
150 | B3
170 | B4
150 | B5
250 | B6
30 | B11
25 | B7
140 | B8
62 | B9
200 | B10

molecular target: T2, cyno FcRn/b2M (cyno, UniProt Q8SPV9 24-297; Q8SPW0 21-119, biotinylated); assay: SPR pH 6.0
T2 construct: bought recombinant biotinylated protein (Immunitrack ITF05 or ACRO FCM-C82W5); also called cFcRn; cFcRn/cb2M
T2 sequence (Q8SPV9 24-297 limits assumed, chain 1 of 2): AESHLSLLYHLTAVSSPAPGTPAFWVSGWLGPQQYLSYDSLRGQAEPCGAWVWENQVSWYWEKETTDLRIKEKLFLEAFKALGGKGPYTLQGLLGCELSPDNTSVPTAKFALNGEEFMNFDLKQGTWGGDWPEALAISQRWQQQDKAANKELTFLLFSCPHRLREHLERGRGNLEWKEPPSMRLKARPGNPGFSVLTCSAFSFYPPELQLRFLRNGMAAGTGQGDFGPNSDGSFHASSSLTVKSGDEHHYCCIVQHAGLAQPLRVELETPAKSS
T2 sequence (Q8SPW0 21-119 limits assumed, chain 2 of 2): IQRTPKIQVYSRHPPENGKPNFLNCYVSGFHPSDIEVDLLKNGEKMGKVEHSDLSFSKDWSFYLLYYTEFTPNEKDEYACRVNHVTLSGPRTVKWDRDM

Kd [nM] | Binder
260 | B1
21 | B12
37 | B2
140 | B3
110 | B4
130 | B5
160 | B6
23 | B13
20 | B7
98 | B8
41 | B9
140 | B10

molecular target: T1, human FcRn/b2M; assay: SPR pH 7.4

Kd [nM] | Binder
5600 | B12

molecular target: T2, cyno FcRn/b2M; assay: SPR pH 7.4

Kd [nM] | Binder
3100 | B12

molecular target: T1, human FcRn/b2M; assay: SPR pH 6.0; remark: another data set of the same source
Protocol: (§1) The affinities of the monovalent purified, tagless ISVDs were determined for human FcRn on ProteOn XPR36 (BioRad Laboratories, Inc.), the MASS-2 (Sierra sensors, Gmbh) or SPR-32 (Bruker Corporation) instrument. In the same way, the affinities of bivalent ISVD constructs comprising two of the same monovalent building blocks of purified, tagless ISVDs were determined for human FcRn on ProteOn XPR36 (BioRad Laboratories, Inc.), the MASS-2 (Sierra sensors, Gmbh) or SPR-32 (Bruker Corporation) instrument. For affinity measurements, ˜1000-3000RU (hFcRn/hb2M; ACRO Biosystems FCM-H82W4) was captured on a ProteOn NLC sensor (ProteOn) or Biotin-tag Capture Chip or a High Capacity Amine Chip (pre-immobilized with neutravidin; MASS-2). The ISVDs were injected at 6 different concentrations (between 1 and 4000 nM) and allowed to associate for 120s at 45 μL/min and dissociate for 600s-3600s at 45 μL/min. […] Evaluation of the sensorgrams was based on the 1:1 Langmuir dissociation model simultaneously fitting on and off-rates.

Kd [nM] | Binder
100 | B14
26 | B15
490 | B16

molecular target: T2, cyno FcRn/b2M; assay: SPR pH 6.0; remark: another data set of the same source
Protocol: as §1

Kd [nM] | Binder
54 | B14
14 | B15
270 | B16

molecular target: T1, human FcRn/b2M; assay: SPR pH 7.4; remark: another data set of the same source
Protocol: as §1

Kd [nM] | Binder
670 | B14
740 | B15
750 | B16

molecular target: T2, cyno FcRn/b2M; assay: SPR pH 7.4; remark: another data set of the same source
Protocol: as §1

Kd [nM] | Binder
580 | B14
490 | B15
420 | B16

molecular target: T1, human FcRn/b2M; assay: SPR pH 6.0; remark: another data set of the same source
Protocol: (§2) The affinity of the purified, multivalent ISVD constructs for human and cyno FcRn was determined on the MASS-2 (Sierra sensors, Gmbh) instrument, hFcRn/hb2M and cFcRn/cb2M was captured on a Biotin-tag Capture Chip or a High Capacity Amine Chip (pre-immobilized with neutravidin). The ISVD constructs were injected at 6 different concentrations (between 1 and 4000 nM) and allowed to associate for 120 s at 45 μL/min and dissociate for 600 s-3600 s at 45 μL/min. […] Evaluation of the sensorgrams was based on the 1:1 Langmuir dissociation model simultaneously fitting on and off-rates.

Kd [nM] | Binder
12 | B17
1000 | B18
71 | B19
250 | B20

molecular target: T2, cyno FcRn/b2M; assay: SPR pH 6.0; remark: another data set of the same source
Protocol: as §2

Kd [nM] | Binder
7.9 | B17
510 | B18
67 | B21
41 | B19
140 | B20

molecular target: T1, human FcRn/b2M; assay: SPR pH 7.4; remark: another data set of the same source
Protocol: as §2

Kd [nM] | Binder
450 | B17
2500 | B21
2600 | B19

molecular target: T2, cyno FcRn/b2M; assay: SPR pH 7.4; remark: another data set of the same source
Protocol: as §2

Kd [nM] | Binder
290 | B17
2900 | B21
2400 | B19
480 | B20

molecular target: T1, human FcRn/b2M; assay: SPR pH 6.0; remark: another data set of the same source
Protocol: as §2

Kd [nM] | Binder
25 | B22
34 | B23

molecular target: T2, cyno FcRn/b2M; assay: SPR pH 6.0; remark: another data set of the same source
Protocol: as §2

Kd [nM] | Binder
15 | B22
180 | B24
20 | B23

molecular target: T1, human FcRn/b2M; assay: SPR pH 7.4; remark: another data set of the same source
Protocol: as §2

Kd [nM] | Binder
830 | B22
1200 | B23

molecular target: T2, cyno FcRn/b2M; assay: SPR pH 7.4; remark: another data set of the same source
Protocol: as §2

Kd [nM] | Binder
480 | B22
710 | B23

molecular target: T3, human serum albumin (human, UniProt P02768 25-609); assay: SPR pH 6.0
T3 construct: also called HSA
Protocol: (§3) The affinity of the purified, multivalent ISVD constructs for human and mouse serum albumin (HSA and MSA, respectively) was determined on the ProteOn XPR36 (BioRad Laboratories, Inc.) instrument. […] The ISVD constructs were injected at 6 different concentrations (between 1 and 500 nM) and allowed to associate for 120 s at 45 μL/min and dissociate for 600s-3600s at 45 μL/min. Evaluation of the sensorgrams was based on the 1:1 Langmuir dissociation model simultaneously fitting on and off-rates.

Kd [nM] | Binder
6.1 | B17
7.4 | B18
7.3 | B21
5.1 | B19
5.7 | B20

molecular target: T4, mouse serum albumin (mouse, UniProt P07724 25-608); assay: SPR pH 6.0
T4 construct: also called MSA
T4 sequence (P07724 25-608 limits assumed): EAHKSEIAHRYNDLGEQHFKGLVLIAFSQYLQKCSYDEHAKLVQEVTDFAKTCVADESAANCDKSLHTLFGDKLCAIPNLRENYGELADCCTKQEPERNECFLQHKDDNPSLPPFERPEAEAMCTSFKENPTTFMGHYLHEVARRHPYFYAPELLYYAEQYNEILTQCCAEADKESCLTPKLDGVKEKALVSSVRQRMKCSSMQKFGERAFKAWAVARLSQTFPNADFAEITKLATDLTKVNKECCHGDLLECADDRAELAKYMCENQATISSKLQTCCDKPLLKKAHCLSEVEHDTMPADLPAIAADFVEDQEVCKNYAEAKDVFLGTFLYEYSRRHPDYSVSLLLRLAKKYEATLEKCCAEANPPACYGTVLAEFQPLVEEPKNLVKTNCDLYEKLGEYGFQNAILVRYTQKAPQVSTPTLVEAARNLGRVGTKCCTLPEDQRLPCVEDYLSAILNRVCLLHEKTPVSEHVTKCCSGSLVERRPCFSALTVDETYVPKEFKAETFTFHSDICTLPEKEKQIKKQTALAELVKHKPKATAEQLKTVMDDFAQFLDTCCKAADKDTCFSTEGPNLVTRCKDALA
Protocol: as §3

Kd [nM] | Binder
67 | B17
89 | B18
89 | B21
57 | B19
64 | B20

molecular target: T3, human serum albumin; assay: SPR pH 7.4
Protocol: as §3

Kd [nM] | Binder
13 | B17
15 | B18
15 | B21
11 | B19
12 | B20

molecular target: T4, mouse serum albumin; assay: SPR pH 7.4
Protocol: as §3

Kd [nM] | Binder
85 | B17
120 | B18
120 | B21
69 | B19
87 | B20

molecular target: T3, human serum albumin; assay: SPR pH 6.0; remark: another data set of the same source
Protocol: as §3

Kd [nM] | Binder
9.8 | B22
10 | B24
14 | B23

molecular target: T4, mouse serum albumin; assay: SPR pH 6.0; remark: another data set of the same source
Protocol: as §3

koff [s⁻¹] | Binder
0.038 | B22
0.056 | B23

molecular target: T3, human serum albumin; assay: SPR pH 7.4; remark: another data set of the same source
Protocol: as §3

Kd [nM] | Binder
7.32 | B22
7.5 | B24
11 | B23

molecular target: T4, mouse serum albumin; assay: SPR pH 7.4; remark: another data set of the same source
Protocol: as §3

koff [s⁻¹] | Binder
0.037 | B22
0.052 | B23
